# Literature values as cited in article PMC8465902.
# Key:
# IscU (Escherichia coli) = IscU (Escherichia coli) (UniProt P0ACD4)
# ISCU (Homo sapiens) = ISCU (Homo sapiens) (UniProt Q9H1K1)
# Chain of UniProt Q9H1K1 (Q9H1K1 35-167): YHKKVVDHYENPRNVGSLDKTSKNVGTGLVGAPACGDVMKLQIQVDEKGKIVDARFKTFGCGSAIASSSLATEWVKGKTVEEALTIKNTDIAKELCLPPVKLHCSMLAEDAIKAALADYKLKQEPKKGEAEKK
# Chain of UniProt P0ACD4 (P0ACD4 whole entry): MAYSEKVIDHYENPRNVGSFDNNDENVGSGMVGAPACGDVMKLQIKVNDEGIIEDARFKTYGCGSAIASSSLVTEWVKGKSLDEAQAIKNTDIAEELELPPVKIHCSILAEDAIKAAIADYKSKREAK
Kd (ISCU (Homo sapiens)) [nM],Substance,Kd (IscU (Escherichia coli)) [nM]
,IscS (from UniProt P0A6B7),2000
1100,NFU1 CTD (from UniProt Q9UMS0),
